Substance	relative rate of pPSA activation by hK2 (HIC-HPLC) ([-7]pPSA)	relative rate of pPSA activation by hK2 (HIC-HPLC) ([-5]pPSA)	relative rate of pPSA activation by hK2 (HIC-HPLC) ([-4]pPSA)	relative rate of pPSA activation by hK2 (HIC-HPLC) ([-2]pPSA)	cleavage of the pro leader by trypsin (N-terminal sequencing) ([-2]pPSA)
human kallikrein 2 (hK2)	The [5/-7]pPSA was activated most rapidly	The [5/-7]pPSA was activated most rapidly	the [-4]pPSA was activated more slowly	[-2]pPSA was not activated by hK2	
trypsin					there was little or no cleavage to release the SR dipeptide of the [-2]pPSA (data not shown)

— patent US7659073
